For assay [1], the target named is chymotrypsin (inhibition assay used during purification).
Assay [2] addresses trypsin (inhibition assay used during purification).

Regarding hirustasin (Hirudo antistasin), in assay [1], the specific activity (SA) of chymotrypsin inhibition, Mono S pool came to 0.15 IU/mg. In assay [2], this substance registered a specific activity (SA) of trypsin inhibition, Mono S pool of 2.7 IU/mg.

The values are drawn from patent publication US5861377.
